Results reported in US20110143394, “Methods and Means for Metabolic Engineering and Improved Product Formation by Micro-Organisms” (Universiteit Leiden, published 2011).

B1: crp cis-element oligo (dsDNA)
DNA 1: TGCGGCATCCTTGTGACAGATCACACTGTTTGGACT
DNA 2: AGTCCAAACAGTGTGATCTGTCACAAGGATGCCGCA
B2: crr dre oligo (dsDNA)
DNA 1: CCGTGAGGAGTGTGGTCTAGACCTCTAATCGGAACA
DNA 2: TGTTCCGATTAGAGGTCTAGACCACACTCCTCACGG

Experiments:
[1] = molecular target: T1, DasR (SCO5231) (Streptomyces coelicolor, UniProt Q9K492 SEQ:1-254); experiment: EMSA; negative control; conditions: tags: His6; chain copies: 2; label: fluorescent
T1 sequence: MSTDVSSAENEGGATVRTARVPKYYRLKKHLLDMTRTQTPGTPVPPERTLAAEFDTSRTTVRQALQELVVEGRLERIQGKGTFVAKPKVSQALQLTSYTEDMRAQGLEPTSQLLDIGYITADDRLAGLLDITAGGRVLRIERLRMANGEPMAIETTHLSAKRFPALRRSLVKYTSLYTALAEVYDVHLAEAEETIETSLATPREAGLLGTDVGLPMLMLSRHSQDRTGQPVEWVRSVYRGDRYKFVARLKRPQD
Method: (§1) Electromobility gel shift assay (EMSA). EMSAs were performed with fluorescent probes (10 nM) with an ALF express sequencer (Filee et al., 2001). Purified DasR (3 μM) and 1000-fold excess of non-specific DNA were used in the reaction mixture. Predicted cis-acting elements were taken from the promoter regions of actII-ORF4 (SCO5085; 5′-[…]-3′ (SEQ ID NO:530)), and redZ (SCO5881; 5′-[…]-3′ (SEQ ID NO:531)). Known cis-acting elements upstream of crr (SCO1390; […]-3′ (SEQ ID NO:532)), and crp (SCO3571; 5′-[…]-3′ (SEQ ID NO:533)) were used as positive and negative controls, respectively. The 16 nt dre sites are underlined.

[2] = molecular target: T1, DasR (SCO5231); experiment: EMSA; no free probe left; 3 uM DasR, 10 nM probe, 1000-fold non-specific DNA; complex prevented by glucosamine-6-P (data not shown); conditions: tags: His6; chain copies: 2; label: fluorescent
Method: as §1

| Binder | binding result [1] | binding result [2] |
| --- | --- | --- |
| B1 | no binding |  |
| B2 |  | binds |
